In the DeepSol protein solubility set:

Assay: soluble on expression in E. coli; label from the status in PepcDB or PDB records

Question: For “MAAALKPSAPEIRKAAQEFINYLNKAVTPFHATQEVKDRLLQAGFTELPESGHWDIQPTSKYFVTKNRSAILAFAVGGSYKPGSGFSIVVGHTDSPCLRVKPISHQKSDKFLQVGVSTYGGGIWRTWFDRDLSVAGLVIVKNGEKLQHKLIDVKKPVLFIPNLAIHLETDRTTFKPNTETELRPILETFAAAGINAPQKPESTGFADPRNITNNHHPQFLGLIAKEAGCQPEDIVDLDLYLYDTNKAAIVGMEDEFISGARLDNQVGTYTAISGLLESLTGESFKNDPQIRIAACFDNEEVGSDSAMGASSSFTEFVLRRLSAGGSTTAFEEAIGKSMLISADQAHATHPNYSAKHEENHRPAFHGGVVVKVNVNQRYATTSTTHAALKQVAFEAQVPLQVVVVRNDSPCGSTVGPILATKLGLQTVDVGCPQLAMHSIREFADTSSIYQATTLYSTFYERLSTVLSNMQ”, which “soluble on expression in E. coli” value is on record?
Answer: not soluble

Question: Which “soluble on expression in E. coli” value does the source give for “MAADGTYDELERGEKSKLRDDVVDIQKKPFSILFMGVEDYSTNGEHGRTDSLIVVTLDPKKKSMKMLSIPRDTRVHLASDTTGTKTKINAAYAKGGKDETIETVEDFLGIPIDYYATVDFDGFKDVIDEIGGIDVDVPFDFSEKSDVSKSKRIYFKKGNMHLNGEEALAYARMRKQDKRGDFGRNDRQKQILKAALDQISKPQNLAKIDTIAQKASKNIQTNFRITQALALQQIYSGFAGDDIKTLNITGQDLTIANVYYFEPDQQNLENVQNELTHHLYPLEHHHHHH” here?
Answer: soluble

Question: For “MAAEGVRVEGDWSRLVETIRNLNLSKSELRMLNAQIAQIVAEGSKERFETEKSPEGERWEPLSPATLEARARRRTRRKDGTSGYRTKRGKLSKRAERIIASGRPLKDTGRLMRSIATKATAEAAVIGTNLVQAAIQQLGGKAGRGKKVEIPARPYLGVSSSEEADIMELINEFIRERIQ”, which “soluble on expression in E. coli” value is on record?
Answer: not soluble

Question: With “MAAIGVHLGCTSACVAVYKDGRAGVVANDAGDRVTPAVVAYSENEEIVGLAAKQSRIRNISNTVMKVKQILGRSSSDPQAQKYIAESKCLVIEKNGKLRYEIDTGEETKFVNPEDVARLIFSKMKETAHSVLGSDANDVVITVPFDFGEKQKNALGEAARAAGFNVLRLIHEPSAALLAYGIGQDSPTGKSNILVFKLGGTSLSLSVMEVNSGIYRVLSTNTDDNIGGAHFTETLAQYLASEFQRSFKHDVRGNARAMMKLTNSAEVAKHSLSTLGSANCFLDSLYEGQDFDCNVSRARFELLCSPLFNKCIEAIRGLLDQNGFTADDINKVVLCGGSSRIPKLQQLIKDLFPAVELLNSIPPDEVIPIGAAIEAGILIGKENLLVEDSLMIECSARDILVKGVDESGASRFTVLFPSGTPLPARRQHTLQAPGSISSVCLELYESDGKNSAKEETKFAQVVLQDLDKKENGLRDILAVLTMKRDGSLHVTCTDQETGKCEAISIEIAS” as the sequence, how does the “soluble on expression in E. coli” value read?
Answer: not soluble

Question: For “MAAISFPLLQLPNFALNKTLKLMCVVPHLYLSIISKKAKRCITAVNEKPLYVHINKASSISLRLTTKSFQNFEFIITPGQSDLEIRKYITTRPLFNSYLSTNQCVLGVTAKQWIELIAQVFIQDKGVLLKLQNSNKFNIKEIQYYTRELNIVRLKIESSELQDTQLSKMFPKVEELTVTRDKIPSSILSRNFKKLRFDDIKVSLDNILISNCSSFLIFLQTLPDKDLNRFMKLWIKESNPNLKTFEVCFPDYEQTGLDGTILFKGIRCIDSIKHGEVTRKKFKRHDGTTALVSVFASTSFHFCMTVVG”, which “soluble on expression in E. coli” value is on record?
Answer: not soluble

Question: Which “soluble on expression in E. coli” value does the source give for “MAAISLAKVEETAPALVSLYKSAGVSLHKHGLDGQRAAVYLVVDYSGSMRPYYKDGSVQALTDRVLGLSAHLDDDGTVPVVFFSTDIDAVTDIALADHQGHIELIVAGLGHMGKTSYHLAMDAVIDHYLDSGSKDPAFVVFQTDGGPTSKPAAERYLCKAAELPLFWQFIGFGDPGSRQFEFLRKLDELAVPHKRVVDNAGFFHAGTDPRKVSDGELYDRLVGEFPQWLAAARTHGIVRLEHHHHHH” here?
Answer: not soluble

Question: With “MAAMITPPGAGVKDKKRAILEATLAVLRERGLSGLKMEEVARRAEVGKGTIYLYFRDKRDLLKALVEERTWAFYREVEEVVRRKAPFFVRLEEVLRRRLAWVQEWRGLWAAVAREAMDDPTPWLKGLHEHYLRLLEELLRSGQSEGAVRTGLSPRATAAVIAAMGCTPSLEVEAYLEHLMEVLRKGVEP” as the sequence, how does the “soluble on expression in E. coli” value read?
Answer: soluble

Question: Which “soluble on expression in E. coli” value does the source give for “MAASRALSLTAEAVRAVIPRRSGRLLTRWETTSSIPEAGEGQIRLTDSCVQVGGRTRGGGAQEGSRRLPSHPSRYLRLLGILDPLS” here?
Answer: not soluble

Question: With “MAATSRPERVWPDGVIPFVIGGNFTGSQRAVFRQAMRHWEKHTCVTFLERTDEDSYIVFTYRPCGCCSYVGRRGGGPQAISIGKNCDKFGIVVHELGHVVGFWHEHTRPDRDRHVSIVRENIQPGQEYNFLKMEPQEVESLGETYDFDSIMHYARNTFSRGIFLDTIVPKYEVNGVKPPIGQRTRLSKGDIAQARKLYKCPA” as the sequence, how does the “soluble on expression in E. coli” value read?
Answer: soluble

Question: Which “soluble on expression in E. coli” value does the source give for “MAAVILESIFLKRSQQKKKTSPLNFKKRLFLLTVHKLSYYEYDFERGRRGSKKGSIDVEKITCVETVVPEKNPPPERQIPRRGEESSEMEQISIIERFPYPFQVVYDEGPLYVFSPTEELRKRWIHQLKNVIRYNSDLVQKYHPCFWIDGQYLCCSQTAKNAMGCQILENRNGSLKPGSSHRKTKKPLPPTPEEDQILKKPLPPEPAAAPVSTSELKKVVALYDYMPMNANDLQLRKGDEYFILEESNLPWWRARDKNGQEGYIPSNYVTEAEDSIEMYEWYSKHMTRSQAEQLLKQEGKEGGFIVRDSSKAGKYTVSVFAKSTGDPQGVIRHYVVCSTPQSQYYLAEKHLFSTIPELINYHQHNSAGLISRLKYPVSQQNKNAPSTAGLGYGSWEIDPKDLTFLKELGTGQFGVVKYGKWRGQYDVAIKMIKEGSMSEDEFIEEAKVMMNLSHEKLVQLYGVCTKQRPIFIITEYMANGCLLNYLREMRHRFQTQQLLEMCKDVCEAMEYLESKQFLHRDLAARNCLVNDQGVVKVSDFGLSRYVLDDEYTSSVGSKFPVRWSPPEVLMYSKFSSKSDIWAFGVLMWEIYSLGKMPYERFTNSETAEHIAQGLRLYRPHLASEKVYTIMYSCWHEKADERPTFKILLSNILDVMDEES” here?
Answer: soluble

Question: For “MACKNPKKFFPIRKSPVLRDGAFKGKLVLVTGGGTGIGKAIATTFAHLRATVVIAARRMEKLEQTARDITKITGGTCEPFQMDIKDPGMVSDAFDKIDMKFGKVPEILVNNAAGNFIMATELLSSNAYGTIIDIVLKGTFNVTTELGKRCIQNKTGASITSITAGYARAGAPFIVPSAVSKAGVETMTKSLATEWSKYGLRFNAVSPGPIPTKGAWGRLNSGEMGDIAEKMKFLNPEGRVGSPEEVANLVAFISSDHMSFLNGAIIDLDGGQQHFNHGSHMGDFLHSWDHKNWEDAENLIRGRTGKEKA”, which “soluble on expression in E. coli” value is on record?
Answer: not soluble

Question: With “MACLSPSQLQKFQQDGFLVLEGFLSAEECVAMQQRIGEIVAEMDVPLHCRTEFSTQEEEQLRAQGSTDYFLSSGDKIRFFFEKGVFDEKGNFLVPPEKSINKIGHALHAHDPVFKSITHSFKVQTLARSLGLQMPVVVQSMYIFKQPHFGGEVSPHQDASFLYTEPLGRVLGVWIAVEDATLENGCLWFIPGSHTSGVSRRMVRAPVGSAPGTSFLGSEPARDNSLFVPTPVQRGALVLIHGEVVHKSKQNLSDRSRQAYTFHLMEASGTTWSPENWLQPTAELPFPQLYT” as the sequence, how does the “soluble on expression in E. coli” value read?
Answer: soluble

Question: For “MADDGVNPKAFPLADTNLSQKLMDLVQQAMNYKQLKKGANEATKTLNRGISEIIVMAADAEPLEILLHLPLLCEDKNVPYVFVRSKAALGRACGVTRPVIAASITQNEGSQLKSQIQKIKEDVEKLLI”, which “soluble on expression in E. coli” value is on record?
Answer: not soluble

Question: Which “soluble on expression in E. coli” value does the source give for “MADEIAKAQVARPGGDTIFGKIIRKEIPAKIIFEDDQCLAFHDISPQAPTHFLVIPKKHISQISAAEDADESLLGHLMIVGKKCAADLGLKKGYRMVVNEGSDGGQSVYHVHLHVLGGRQMNWPPG” here?
Answer: soluble

Question: Which “soluble on expression in E. coli” value does the source give for “MADEQEIMCKLESIKEIRNKTLQMEKIKARLKAEFEALESEERHLKEYKQEMDLLLQEKMAHVEELRLIHADINVMENTIKQSENDLNKLLESTRRLHDEYKPLKEHVDALRMTLGLQRLPDLCEEEEKLSLDYFEKQKAEWQTEPQEPPIPESLAAAAAAAQQLQVARKQDTRQTATFRQQPPPMKACLSCHQQIHRNAPICPLCKAKSRSRNPKKPKRKQDE” here?
Answer: not soluble

Question: Which “soluble on expression in E. coli” value does the source give for “MADKDTYTGFCIIKEGTKISKSGWEVLSFTTQEASGEGAGNGLAKCLIDGDTETFWHAKWQGGSDPLPYDIVIDMKQNIQIAQVELLPRGRGSNNPIKVVEFAASEDNVNWTPIGRFGFTNQDAALEYYVKSIKARYIRLTIPDDGGNSTVAAIRELDVKGTIINLEHHHHHH” here?
Answer: soluble

Question: Which “soluble on expression in E. coli” value does the source give for “MADKSAEKERLFNEWFTASYDRLRGTLRRYGMLDEDNFHDTYLFVRRQVLVPGKDITDYDAYFIGCYKKAALVKIKRENRYAHPEDDFFLRCGEEAKFLSEDDLNGCERLVRDILRFVRQKFSYEEYRMFMLRFYEAQFSFKALAECMGISASAISQKVCRIVDAVRTHSGFAWRSQMLAVESFMY” here?
Answer: not soluble

Question: For “MADLERYLKRARGGRVVRTGFLDPEDQARLEEMARREGIRVAFFGGFPLAERKVAVLYPEEVPSVSDPVEVVLLDRPPPADLGEVLGEVEEVEEGVLAALLPEGRKALEAQGYRLLPPPEGALRPPRERVRTLVVPSLRVDAVGAKGFGVSRSYFAQGVKAGKVRLKGRPASPKDELAPGDLLFAEGLGTLRLLEVVGKTVRGNYKIKVEVER”, which “soluble on expression in E. coli” value is on record?
Answer: soluble

Question: Which “soluble on expression in E. coli” value does the source give for “MADRLIVKGAREHNLRSVDLDLPRDALIVFTGLSGSGKSSLAFDTIFAEGQRRYVESLSAYARQFLGQMDKPDVDFIEGLSPAVSIDQKSTNRNPRSTVGTITEVYDYLRLLYARAGTPHCPTCGERVARQTPQQIVDQVLAMPEGTRFLVLAPVVRTRKGEFADLFDKLNAQGYSRVRVDGVVHPLTDPPKLKKQEKHDIEVVVDRLTVKAAAKRRLTDSVETALNLADGIVVLEFVDHELGAPHREQRFSEKLACPNGHALAVDDLEPRSFSFNSPYGACPECSGLGIRKEVDPELVVPDPDRTLAQGAVAPWSNGHTAEYFTRMMAGLGEALGFDVDTPWRKLPAKARKAILEGADEQVHVRYRNRYGRTRSYYADFEGVLAFLQRKMSQTESEQMKERYEGFMRDVPCPVCAGTRLKPEILAVTLAGESKGEHGAKSIAEVCELSIADCADFLNALTLGPREQAIAGQVLKEIRSRLGFLLDVGLEYLSLSRAAATLSGGEAQRIRLATQIGSGLVGVLYVLDEPSIGLHQRDNRRLIETLTRLRDLGNTLIVVEHDEDTIEHADWIVDIGPGAGEHGGRIVHSGPYDELLRNKDSITGAYLSGRESIEIPAIRRSVDPRRQLTVVGAREHNLRGIDVSFPLGVLTSVTGVSGSGKSTLVNDILAAVLANRLNGARQVPGRHTRVTGLDYLDKLVRVDQSPIGRTPRSNPATYTGVFDKIRTLFAATTEAKVRGYQPGRFSFNVKGGRCEACTGDGTIKIEMNFLPDVYVPCEVCQGARYNRETLEVHYKGKTVSEVLDMSIEEAAEFFEPIAGVHRYLRTLVDVGLGYVRLGQPAPTLSGGEAQRVKLASELQKRSTGRTVYILDEPTTGLHFDDIRKLLNVINGLVDKGNTVIVIEHNLDVIKTSDWIIDLGPEGGAGGGTVVAQGTPEDVAAVPASYTGKFLAEVVGGGASAATSRSNRRRNVSA” here?
Answer: soluble

Question: With “MADTGEVQFMKPFISEKSSKSLEIPLGFNEYFPAPFPITVDLLDYSGRSWTVRMKKRGEKVFLTVGWENFVKDNNLEDGKYLQFIYDRDRTFYVIIYGHNMCSEYRDFPQVAVEVDDYENGEEEEDGDDQDKHQ” as the sequence, how does the “soluble on expression in E. coli” value read?
Answer: soluble
